# Biological target: EphA7 full-length isoform with hemagglutinin tag (EphA7-FL-HA) (UniProt Q61772-1 28-998)
# Assay: cell-based or functional assay
# Sequence of EphA7 full-length isoform with hemagglutinin tag (EphA7-FL-HA) (Q61772 28-998): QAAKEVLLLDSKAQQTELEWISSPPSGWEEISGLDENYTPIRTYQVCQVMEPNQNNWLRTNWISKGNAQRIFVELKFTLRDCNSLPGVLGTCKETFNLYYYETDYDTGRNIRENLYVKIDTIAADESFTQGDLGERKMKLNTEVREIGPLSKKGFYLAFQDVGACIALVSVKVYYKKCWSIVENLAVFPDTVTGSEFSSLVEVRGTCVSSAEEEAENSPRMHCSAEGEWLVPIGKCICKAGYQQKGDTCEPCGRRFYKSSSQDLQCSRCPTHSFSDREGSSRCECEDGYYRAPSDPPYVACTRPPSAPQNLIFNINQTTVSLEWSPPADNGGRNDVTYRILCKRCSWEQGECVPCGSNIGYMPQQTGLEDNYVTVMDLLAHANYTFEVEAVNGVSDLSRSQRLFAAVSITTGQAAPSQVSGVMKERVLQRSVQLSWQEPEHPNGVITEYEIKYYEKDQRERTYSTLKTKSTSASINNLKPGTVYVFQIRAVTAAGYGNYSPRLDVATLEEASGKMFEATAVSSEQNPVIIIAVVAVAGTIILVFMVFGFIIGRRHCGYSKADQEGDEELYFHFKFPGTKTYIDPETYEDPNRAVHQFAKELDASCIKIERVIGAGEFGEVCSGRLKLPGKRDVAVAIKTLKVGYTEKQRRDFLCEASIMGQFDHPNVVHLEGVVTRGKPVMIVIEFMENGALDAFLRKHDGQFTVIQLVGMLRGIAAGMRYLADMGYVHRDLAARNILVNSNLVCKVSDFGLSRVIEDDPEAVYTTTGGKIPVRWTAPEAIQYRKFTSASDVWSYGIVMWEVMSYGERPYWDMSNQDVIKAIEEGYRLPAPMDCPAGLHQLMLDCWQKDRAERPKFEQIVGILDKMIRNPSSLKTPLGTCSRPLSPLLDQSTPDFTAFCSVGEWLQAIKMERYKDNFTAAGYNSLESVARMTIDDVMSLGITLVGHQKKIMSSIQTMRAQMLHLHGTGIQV
binder,measurement,value
EphA7 truncated isoform with myc tag (EphA7-T1-myc) (receptor) not shown,"EphA7-FL tyrosine phosphorylation (phospho-tyrosine over total HA after HA IP) in HEK cells stimulated with clustered ephrin-A5-hFC, at EphA7-T1:FL ratios 1:1 (65%) and 5:1 (42%) compared to 0.2:1",65 % of EphA7-FL tyrosine phosphorylation compared to a ratio of 0.2:1
